The record followed here is article PMC4294672 (Molecular Biology of the Cell, 2015).

The chains are these.
B1: GST-Rho4 (enzyme)
chain: MSAFKKSGSKSETSKKLVVVGDGGCGKTCLLIVFSSGTFPERYVPTVFENYITDITYGPNSKVIELALWDTAGQEEYDRLRPLSYPNSNVILLCFSIDCPASLNNVTEKWYPEVQHFCPRTPIVLVGLKADLRKDRNATEVLRTQGLTPVTYQQAQSVALSMNAPYVECSAKENTGVNEVFQLAVGLTIKKSFSFSKKSCVIL
B2: hexahistidine (6His)-tagged Gef3 (natural protein)
chain: MSNPRMFQSRGKRVVSDSLPIANSTHTLEDTLKLRPDWTIALSQHETETRSTRTSCSTTTESTIAMRSKQKAIISVLEEFRDSEAAYVHDLHVAQRYYADRLSDRVKKSEWKDVFEIFLVLCKQASLFEIEMHKSLNDEINYILDDQDACLKPKPSVAQLFLSWLPKLSAVYGRYCVIQENIGKKVEKWMKNSSISEYLQECDSMAKIESNSWNLDSFLVKPVQRFLKYPLLLNQLYRSASLGIISDYVLLGEACHKSEIASQRMNELKRRRDIIITALDSVSNSQEVLLLSTDSIDKKIAKLQNSTNIFYVPEHEPILAFVHQLSSSYTNLLNLRSAICDWLKFSRYHYLKFFTFVEAYSVFCKDTKSADKWALISVALDNIAKGAVLRLTEQCQTSVLRPISNGILFFRNPLCVTDVWIKKATAFSKRRQSQVFEEDLESFPLLSNCLLEELPLFLEMARNVTDECILAFAQIQATFYDTIQKVLEPVVAKFNLTDHQDIPSIESIMDFTSLRSSMESSPKSK

Read-outs that look alike come from different tables or passages of the source.

What all share (assay): pull-down
For assay [1], the target named is T1, 3FLAG-Gef3 (S. pombe, UniProt O59679 1-525).
T1 sequence: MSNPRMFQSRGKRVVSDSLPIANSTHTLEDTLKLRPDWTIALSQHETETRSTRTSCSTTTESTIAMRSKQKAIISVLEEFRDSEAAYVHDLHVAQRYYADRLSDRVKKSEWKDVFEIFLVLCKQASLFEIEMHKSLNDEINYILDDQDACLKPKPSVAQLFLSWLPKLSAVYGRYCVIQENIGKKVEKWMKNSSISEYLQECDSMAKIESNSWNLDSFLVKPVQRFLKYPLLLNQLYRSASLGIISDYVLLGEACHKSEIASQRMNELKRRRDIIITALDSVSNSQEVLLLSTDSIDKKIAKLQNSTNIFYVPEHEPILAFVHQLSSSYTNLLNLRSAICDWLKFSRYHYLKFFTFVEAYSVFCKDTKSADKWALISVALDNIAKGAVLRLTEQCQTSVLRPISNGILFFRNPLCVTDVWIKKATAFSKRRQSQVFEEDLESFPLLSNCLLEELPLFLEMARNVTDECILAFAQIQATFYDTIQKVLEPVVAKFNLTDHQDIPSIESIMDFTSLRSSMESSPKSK

The assay “GST-Rho4” deals with B1.
The target in assay [2] is T1, 3FLAG-Gef3. This is another data set of the same source.
Assay [3] concerns the target B2.

Regarding B1, the binding result with 3FLAG-Gef3 [1] is recorded as “binds”.
Regarding B2, the “fold more pulled down than by the GST control” value with GST-Rho4 is roughly 35 times.

B3: GST-Rho2 (enzyme)
chain: MLQSQPIRRKLVVVGDGACGKTSLLSVFTLGYFPTEYVPTVFENYVSDCRVDGKSVQLALWDTAGQEEYERLRPMSYAKAHIILVGFAIDSPDSLENVSTKWIEEINTLCPNVPFILVGMKADLRSDPVAIEEMRRRNQNFVKSQQAELVAQRIGARKYMECSSLTGDGVDDVFEAATRAALTVRDSENDKSSTKCCIIS
Take B3: the binding result with 3FLAG-Gef3 [2] is recorded as “binds”.

B4: GST-Rho1 (enzyme)
chain: MATELRRKLVIVGDGACGKTCLLIVFSKGTFPEVYVPTVFENYVADVEVDGRHVELALWDTAGQEDYDRLRPLSYPDSHVILICFAVDSPDSLDNVQEKWISEVLHFCSSLPILLVACKADLRNDPKIIEELSKTNQHPVTTEEGQAVAQKIGAYKYLECSAKTNEGVREVFESATRAAMLKHKPKVKPSSGTKKKKRCILL
Consider B4, for which the binding result (in the assay with 3FLAG-Gef3 [1]; in assay [3]) was “binds” each time.

B5: GST-Rho5 (enzyme)
chain: MTTELRRKLVIVGDGACGKTCLLIVFSKGTFPEVYVPTVFENYVADVEVDGRHIELALWDTAGQEDYDRLRPLSYPDSHVVLICFSVDAPESLDNVQEKWISEVLHFCSNLPILLVGCKVDLRNDPKTIEELSKTSQKPITFEEGQVVAQKIGAYKYLECSAKLNEGVNEVFETAARASMLKFKPASVPKTKKKKHCILL
As for B5, the binding result (with 3FLAG-Gef3 [2]; in assay [3]) was “binds” each time.
